These results are taken from patent US20220411483A1 (Chugai, published 2022).

The target in one experiment is T1, human complement C1q (human, UniProt P02745 23-245; P02746 28-253; P02747 29-245).
T1 construct: Bought (PROSPEC or Calbiochem); also called human C1q
As to the kind of experiment: SPR, C1q bound per antibody captured on Protein L. The method, then: The interaction between an antibody and human C1q was analyzed using Biacore T200 (GE Healthcare). HBS-EP+ (GE Healthcare) was used as the running buffer, and the measurement temperature was set at 25° C. Chips produced by immobilizing Protein L (ACTIGEN or BioVision) onto Series S sensor Chip CM4 (GE Healthcare) by amine coupling were used.
The antibodies of interest were captured onto these sensor chips, and allowed to interact with human complement C1q (PROSPEC or Calbiochem) diluted in the running buffer. The amount of antibody binding was determined, and comparisons were made among the antibodies. However, since the amount of C1q bound depends on the amount of captured antibodies, corrected values obtained by dividing the amount of C1q bound by the amount of each antibody captured were compared. Furthermore, by reaction with 10 mM glycine-HCl, pH 1.5, the antibodies captured onto the sensor chips were washed, and the sensor chips were recycled and reused.

The target of a further experiment is T2, FcgRIIaR (human, UniProt P12318 34-217).
T2 construct: extracellular domain; also called FcγRIIa R type; FcγRIIa (R type)
T2 sequence (looked up): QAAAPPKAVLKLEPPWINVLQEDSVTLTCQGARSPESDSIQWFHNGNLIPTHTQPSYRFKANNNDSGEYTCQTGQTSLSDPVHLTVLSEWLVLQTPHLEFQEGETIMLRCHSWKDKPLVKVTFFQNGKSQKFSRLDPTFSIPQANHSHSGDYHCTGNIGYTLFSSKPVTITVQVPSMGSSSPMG
Put plainly: SPR, amount bound per captured antibody. (In SPR one partner is held on a chip, and binding of the other changes the refractive index at the surface.)

The target of another experiment is T3, FcgRIIb (human, UniProt P31994 43-217).
T3 construct: extracellular domain; also called FcγRIIb
T3 sequence (looked up): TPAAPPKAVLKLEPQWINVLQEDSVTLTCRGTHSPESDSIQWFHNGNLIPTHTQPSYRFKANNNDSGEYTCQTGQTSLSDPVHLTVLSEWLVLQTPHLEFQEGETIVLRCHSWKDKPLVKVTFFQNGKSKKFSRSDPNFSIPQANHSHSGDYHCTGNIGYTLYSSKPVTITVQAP
Put plainly: SPR, amount bound per captured antibody.

T1 sequence (P02745 23-245 limits assumed, chain 1 of 3): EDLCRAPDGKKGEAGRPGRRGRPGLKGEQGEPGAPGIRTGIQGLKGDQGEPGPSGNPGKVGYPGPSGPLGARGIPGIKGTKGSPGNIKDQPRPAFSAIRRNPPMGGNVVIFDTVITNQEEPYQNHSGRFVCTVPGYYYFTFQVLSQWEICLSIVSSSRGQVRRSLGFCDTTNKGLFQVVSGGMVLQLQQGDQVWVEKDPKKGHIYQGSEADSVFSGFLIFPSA
T1 sequence (P02746 28-253 limits assumed, chain 2 of 3): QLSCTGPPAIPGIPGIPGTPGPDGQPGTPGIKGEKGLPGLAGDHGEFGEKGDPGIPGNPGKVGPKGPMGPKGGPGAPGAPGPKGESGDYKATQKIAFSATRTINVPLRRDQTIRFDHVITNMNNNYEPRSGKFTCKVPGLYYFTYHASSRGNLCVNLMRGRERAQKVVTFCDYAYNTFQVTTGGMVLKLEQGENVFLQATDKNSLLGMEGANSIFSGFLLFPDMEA
T1 sequence (P02747 29-245 limits assumed, chain 3 of 3): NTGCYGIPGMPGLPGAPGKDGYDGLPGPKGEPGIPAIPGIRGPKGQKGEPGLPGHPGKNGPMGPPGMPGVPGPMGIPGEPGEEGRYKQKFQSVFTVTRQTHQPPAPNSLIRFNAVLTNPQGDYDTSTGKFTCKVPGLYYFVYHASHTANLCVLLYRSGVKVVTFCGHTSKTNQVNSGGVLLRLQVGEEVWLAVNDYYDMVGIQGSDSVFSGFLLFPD

B1: IL6R-P562/IL6R-L (antibody, human IgG1, kappa)
heavy: QVQLQESGPGLVKPSETLSLTCAVSGHSISHDHAWSWVRQPPGEGLEWIGFISYSGITNYNPSLQGRVTISRDNSKNTLYLQMNSLRAEDTAVYYCARSLARTTAMDYWGEGTLVTVSSASTKGPSVFPLAPSSKSTSGGTAALGCLVKDYFPEPVTVSWNSGALTSGVHTFPAVLQSSGLYSLSSVVTVPSSSLGTQTYICNVNHKPSNTKVDKKVEPKSCDKTHTCPPCPAPDLLGDDSVFLFPPKPKDTLMISRTPEVTCVVVDVSEEDGEVKFNWYVDGVEVHNAKTKPREEQYNSTYRVVSVLTVLHQDWLNGKEYKCKVSNKALPAPIEKTISKAKGQPREPQVYTLPPSRDELTKNQVSLTCLVKGFYPSDIAVEWESNGQPENNYKTTPPVLDSDGSFFLYSKLTVDKSRWQQGNVFSCSVMHEALHNHYTQKSLSLSP
light: not shown
For B1, the “Amount of C1q-binding when that for G1d is Defined as 100” value (from here on “Amount of C1q-binding when that”) with human complement C1q is 29.4 G1d=100. The “Relative FcgRIIaR-binding Activity” value with FcgRIIaR came out at 89.7 IL6R-G1d/IL6R-L=100. For the same molecule, the “Relative FcgRIIb-binding Activity” value with FcgRIIb turned out to be 311 IL6R-G1d/IL6R-L=100.

B2: IL6R-P691/IL6R-L (antibody, human IgG1, kappa)
heavy: QVQLQESGPGLVKPSETLSLTCAVSGHSISHDHAWSWVRQPPGEGLEWIGFISYSGITNYNPSLQGRVTISRDNSKNTLYLQMNSLRAEDTAVYYCARSLARTTAMDYWGEGTLVTVSSASTKGPSVFPLAPSSKSTSGGTAALGCLVKDYFPEPVTVSWNSGALTSGVHTFPAVLQSSGLYSLSSVVTVPSSSLGTQTYICNVNHKPSNTKVDKKVEPKSCDKTHTCPPCPAPELFGQDSVMLFPPKPKDTLMISRTPEVTCVVVDVSHEDPEVKFNWYVDGVEVHNAKTKPREEQENSTYRVVSVLTVLHQDWLNGKEYKCKVSNKALPAPIEKTISKAKGQPREPQVYTLPPSRDELTKNQVSLTCLVKGFYPSDIAVEWESNGQPENNYKTTPPVLDSDGSFFLYSKLTVDKSRWQQGNVFSCSVMHEALHNHYTQKSLSLSP
light: not shown
Consider B2, for which, in the experiment with human complement C1q, the “Amount of C1q-binding when that” value stood at 21 G1d=100. In addition, in the experiment with FcgRIIaR, the “Relative FcgRIIaR-binding Activity” value came to 10.8 IL6R-G1d/IL6R-L=100. Further, in the experiment with FcgRIIb, the “Relative FcgRIIb-binding Activity” value turned out to be 119 IL6R-G1d/IL6R-L=100.

B3: IL6R-P587/IL6R-L (antibody, human IgG1, kappa)
heavy: QVQLQESGPGLVKPSETLSLTCAVSGHSISHDHAWSWVRQPPGEGLEWIGFISYSGITNYNPSLQGRVTISRDNSKNTLYLQMNSLRAEDTAVYYCARSLARTTAMDYWGEGTLVTVSSASTKGPSVFPLAPSSKSTSGGTAALGCLVKDYFPEPVTVSWNSGALTSGVHTFPAVLQSSGLYSLSSVVTVPSSSLGTQTYICNVNHKPSNTKVDKKVEPKSCDKTHTCPPCPAPDLLGGDSVFLFPPKPKDTLMISRTPEVTCVVIDVAEEDGEVKFNWYVDGVEVHNAKTKPREEQYNSTYRVVSVLTVLHQDWLNGKEYKCKVSNKALPAPIEKTISKAKGQPREPQVYTLPPSRDELTKNQVSLTCLVKGFYPSDIAVEWESNGQPENNYKTTPPVLDSDGSFFLYSKLTVDKSRWQQGNVFSCSVMHEALHNHYTQKSLSLSP
light: not shown
Turning to B3, the “Amount of C1q-binding when that” value in the experiment with human complement C1q stood at 132 G1d=100. Further, the “Relative FcgRIIaR-binding Activity” value with FcgRIIaR stood at 106 IL6R-G1d/IL6R-L=100. Moreover, in the experiment with FcgRIIb, the “Relative FcgRIIb-binding Activity” value was 350 IL6R-G1d/IL6R-L=100.

B4: IL6R-P737/IL6R-L (antibody, human IgG1, kappa)
heavy: QVQLQESGPGLVKPSETLSLTCAVSGHSISHDHAWSWVRQPPGEGLEWIGFISYSGITNYNPSLQGRVTISRDNSKNTLYLQMNSLRAEDTAVYYCARSLARTTAMDYWGEGTLVTVSSASTKGPSVFPLAPSSKSTSGGTAALGCLVKDYFPEPVTVSWNSGALTSGVHTFPAVLQSSGLYSLSSVVTVPSSSLGTQTYICNVNHKPSNTKVDKKVEPKSCDKTHTCPPCPAPELLGQDSVMLFPPKPKDTLMISRTPEVTCVVVDVSPEDPEVKFNWYVDGVEVHNAKTKPREEQENSTYRVVSVLTVLHQDWLNGKEYKCKVHNKALPHPIEKTISKAKGQPREPQVYTLPPSRDELTKNQVSLTCLVKGFYPSDIAVEWESNGQPENNYKTTPPVLDSDGSFFLYSKLTVDKSRWQQGNVFSCSVMHEALHNHYTQKSLSLSP
light: not shown
For the molecule B4, the “Amount of C1q-binding when that” value with human complement C1q was 45.7 G1d=100. The “Relative FcgRIIaR-binding Activity” value with FcgRIIaR worked out at 8 IL6R-G1d/IL6R-L=100. In the experiment with FcgRIIb, the “Relative FcgRIIb-binding Activity” value was found to be 78.7 IL6R-G1d/IL6R-L=100.

B5: IL6R-P588/IL6R-L (antibody, human IgG1, kappa)
heavy: QVQLQESGPGLVKPSETLSLTCAVSGHSISHDHAWSWVRQPPGEGLEWIGFISYSGITNYNPSLQGRVTISRDNSKNTLYLQMNSLRAEDTAVYYCARSLARTTAMDYWGEGTLVTVSSASTKGPSVFPLAPSSKSTSGGTAALGCLVKDYFPEPVTVSWNSGALTSGVHTFPAVLQSSGLYSLSSVVTVPSSSLGTQTYICNVNHKPSNTKVDKKVEPKSCDKTHTCPPCPAPELLGGDSVFLFPPKPKDTLMISRTPEVTCVVIDVAEEDGEVKFNWYVDGVEVHNAKTKPREEQYNSTYRVVSVLTVLHQDWLNGKEYKCKVSNKALPAPIEKTISKAKGQPREPQVYTLPPSRDELTKNQVSLTCLVKGFYPSDIAVEWESNGQPENNYKTTPPVLDSDGSFFLYSKLTVDKSRWQQGNVFSCSVMHEALHNHYTQKSLSLSP
light: not shown
On to B5, for which, in the experiment with human complement C1q, the “Amount of C1q-binding when that” value is 108 G1d=100. Moreover, in the experiment with FcgRIIaR, the “Relative FcgRIIaR-binding Activity” value was determined as 100 IL6R-G1d/IL6R-L=100. The “Relative FcgRIIb-binding Activity” value in the experiment with FcgRIIb came to 346 IL6R-G1d/IL6R-L=100.

B6: IL6R-P727/IL6R-L (antibody, human IgG1, kappa)
heavy: QVQLQESGPGLVKPSETLSLTCAVSGHSISHDHAWSWVRQPPGEGLEWIGFISYSGITNYNPSLQGRVTISRDNSKNTLYLQMNSLRAEDTAVYYCARSLARTTAMDYWGEGTLVTVSSASTKGPSVFPLAPSSKSTSGGTAALGCLVKDYFPEPVTVSWNSGALTSGVHTFPAVLQSSGLYSLSSVVTVPSSSLGTQTYICNVNHKPSNTKVDKKVEPKSCDKTHTCPPCPAPELLGQDSVMLFPPKPKDTLMISRTPEVTCVVVDVSPEDPEVKFNWYVDGVEVHNAKTKPREEQENSTYRVVSVLTVLHQDWLNGKEYKCKVSNKALPHPIEKTISKAKGQPREPQVYTLPPSRDELTKNQVSLTCLVKGFYPSDIAVEWESNGQPENNYKTTPPVLDSDGSFFLYSKLTVDKSRWQQGNVFSCSVMHEALHNHYTQKSLSLSP
light: not shown
For the molecule B6, the “Amount of C1q-binding when that” value in the experiment with human complement C1q was determined as 35.5 G1d=100. The “Relative FcgRIIaR-binding Activity” value in the experiment with FcgRIIaR came out at 9.7 IL6R-G1d/IL6R-L=100. For the same molecule, in the experiment with FcgRIIb, the “Relative FcgRIIb-binding Activity” value was determined as 93 IL6R-G1d/IL6R-L=100.

B7: IL6R-P743/IL6R-L (antibody, human IgG1, kappa)
heavy: QVQLQESGPGLVKPSETLSLTCAVSGHSISHDHAWSWVRQPPGEGLEWIGFISYSGITNYNPSLQGRVTISRDNSKNTLYLQMNSLRAEDTAVYYCARSLARTTAMDYWGEGTLVTVSSASTKGPSVFPLAPSSKSTSGGTAALGCLVKDYFPEPVTVSWNSGALTSGVHTFPAVLQSSGLYSLSSVVTVPSSSLGTQTYICNVNHKPSNTKVDKKVEPKSCDKTHTCPPCPAPELLGGDSVFLFPPKPKDTLMISRTPEVTCVVVDVSHEDPEVKFNWYVDGVEVHNAKTKPREEQYNSTYRVVSVLTVLHQDWLNGKEYKCKVSNKGLPSSIEKTISKAKGQPREPQVYTLPPSRDELTKNQVSLTCLVKGFYPSDIAVEWESNGQPENNYKTTPPVLDSDGSFFLYSKLTVDKSRWQQGNVFSCSVMHEALHNHYTQKSLSLSP
light: not shown
As for B7, the “Amount of C1q-binding when that” value in the experiment with human complement C1q was found to be 20.9 G1d=100. Further, the “Relative FcgRIIaR-binding Activity” value in the experiment with FcgRIIaR is 13.5 IL6R-G1d/IL6R-L=100. Further, the “Relative FcgRIIb-binding Activity” value in the experiment with FcgRIIb came out at 69.4 IL6R-G1d/IL6R-L=100.

B8: IL6R-P733/IL6R-L (antibody, human IgG1, kappa)
heavy: QVQLQESGPGLVKPSETLSLTCAVSGHSISHDHAWSWVRQPPGEGLEWIGFISYSGITNYNPSLQGRVTISRDNSKNTLYLQMNSLRAEDTAVYYCARSLARTTAMDYWGEGTLVTVSSASTKGPSVFPLAPSSKSTSGGTAALGCLVKDYFPEPVTVSWNSGALTSGVHTFPAVLQSSGLYSLSSVVTVPSSSLGTQTYICNVNHKPSNTKVDKKVEPKSCDKTHTCPPCPAPELFGQDSVMLFPPKPKDTLMISRTPEVTCVVVDVSPEDPEVKFNWYVDGVEVHNAKTKPREEQENSTYRVVSVLTVLHQDWLNGKEYKCKVHNKALPAPIEKTISKAKGQPREPQVYTLPPSRDELTKNQVSLTCLVKGFYPSDIAVEWESNGQPENNYKTTPPVLDSDGSFFLYSKLTVDKSRWQQGNVFSCSVMHEALHNHYTQKSLSLSP
light: not shown
B8: the “Amount of C1q-binding when that” value with human complement C1q was 23 G1d=100. Moreover, the “Relative FcgRIIaR-binding Activity” value with FcgRIIaR is 8.1 IL6R-G1d/IL6R-L=100. The “Relative FcgRIIb-binding Activity” value with FcgRIIb was 84.8 IL6R-G1d/IL6R-L=100.

B9: IL6R-P729/IL6R-L (antibody, human IgG1, kappa)
heavy: QVQLQESGPGLVKPSETLSLTCAVSGHSISHDHAWSWVRQPPGEGLEWIGFISYSGITNYNPSLQGRVTISRDNSKNTLYLQMNSLRAEDTAVYYCARSLARTTAMDYWGEGTLVTVSSASTKGPSVFPLAPSSKSTSGGTAALGCLVKDYFPEPVTVSWNSGALTSGVHTFPAVLQSSGLYSLSSVVTVPSSSLGTQTYICNVNHKPSNTKVDKKVEPKSCDKTHTCPPCPAPELFGQDSVMLFPPKPKDTLMISRTPEVTCVVVDVSPEDPEVKFNWYVDGVEVHNAKTKPREEQENSTYRVVSVLTVLHQDWLNGKEYKCKVSNKALPAPIEKTISKAKGQPREPQVYTLPPSRDELTKNQVSLTCLVKGFYPSDIAVEWESNGQPENNYKTTPPVLDSDGSFFLYSKLTVDKSRWQQGNVFSCSVMHEALHNHYTQKSLSLSP
light: not shown
Consider B9, for which the “Amount of C1q-binding when that” value in the experiment with human complement C1q came to 22.8 G1d=100. The “Relative FcgRIIaR-binding Activity” value with FcgRIIaR came out at 9 IL6R-G1d/IL6R-L=100. For the same molecule, the “Relative FcgRIIb-binding Activity” value in the experiment with FcgRIIb came to 100 IL6R-G1d/IL6R-L=100.
